In patent US20120269734:

T1: Luc8 fusion protein (Luc8-PLGVR-6xHis)
T1 chain: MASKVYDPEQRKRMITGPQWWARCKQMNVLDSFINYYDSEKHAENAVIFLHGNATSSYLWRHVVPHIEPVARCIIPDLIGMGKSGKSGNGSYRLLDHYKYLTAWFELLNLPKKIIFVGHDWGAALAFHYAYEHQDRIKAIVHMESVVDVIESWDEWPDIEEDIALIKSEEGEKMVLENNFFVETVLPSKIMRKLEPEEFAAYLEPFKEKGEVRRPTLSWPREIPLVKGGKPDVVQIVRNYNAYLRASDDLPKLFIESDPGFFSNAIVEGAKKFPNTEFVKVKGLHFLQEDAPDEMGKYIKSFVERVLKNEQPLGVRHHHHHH

B1: active human recombinant MMP-2 (CalBiochem) (protein)
chain: YNFFPRKPKWDKNQITYRIIGYTPDLDPETVDDAFARAFQVWSDVTPLRFSRIHDGEADIMINFGRWEHGDGYPFDGKDGLLAHAFAPGTGVGGDSHFDDDELWTLGEGQVVRVKYGNADGEYCKFPFLFNGKEYNSCTDTGRSDGFLWCSTTYNFEKDGKYGFCPHEALFTMGGNAEGQPCKFPFRFQGTSYDSCTTEGRTDGYRWCGTTEDYDRDKKYGFCPETAMSTVGGNSEGAPCVFPFTFLGNKYESCTSAGRSDGKMWCATTANYDDDRKWGFCPDQGYSLFLVAAHEFGHAMGLEHSQDPGALMAPIYTYTKNFRLSQDDIKGIQELYGASPDIDLGTGPTPTLGPVTPEICKQDIVFDGIAQIRGEIFFFKDRFIWRTVTPRDKPMGPLLVATFWPELPEKIDAVYEAPQEEKAVFFAGNEYWIYSASTLERGYPKPLTSLGLPPDVQRVDAAFNWSKNKKTYIFAGDKFWRYNEVKKKMDPGFPKLIADAWNAIPDNLDAVVDLQGGGHSYFFKGAYYLKLENQSLKSVKFGSIKSDWLGC

Legend:
[1] = test system: kemptide (substrate of PKA), conjugated to the bioluminescent protein Luc8 as in the method of FIG. 21b
[2] = biological target: T1, Luc8 fusion protein (Luc8-PLGVR-6xHis)

| Molecule | BRET ratio after the PKA phosphorylation (method of FIG. 21b) [1] | BRET ratio before the PKA phosphorylation (method of FIG. 21b) [1] | BRET ratio after 24 hours at 22° C., MMP-2 at 20 ng/mL (~300 pM) [2] | BRET ratio at the start, MMP-2 at 20 ng/mL (~300 pM) [2] | BRET ratio before the MMP-2 cleavage (t=0); fusion protein 16 µM, MMP-2 10 µg/mL, 22° C. [2] | BRET ratio within 30 minutes of incubation with MMP-2 (10 µg/mL) [2] | BRET ratio within 2 hours of incubation with MMP-2 (10 µg/mL) [2] | NuPAGE assay [2] | decrease of the BRET ratio after 24 hours at 22° C. with MMP-2 at 20 ng/mL (~300 pM) [2] | gel electrophoresis (4-12% Bis-Tris denaturing gel, Coomassie) [2] |
| --- | --- | --- | --- | --- | --- | --- | --- | --- | --- | --- |
| Protein Kinase A (PKA) | The BRET ratio was increased from 0.15 to 0.47 after the PKA phosphorylation of the substrate kemptide | The BRET ratio was increased from 0.15 to 0.47 after the PKA phosphorylation of the substrate kemptide |  |  |  |  |  |  |  |  |
| B1 |  |  | the BRET ratio decreased by ~20% from 1.6 to 1.3 for a concentration of MMP-2 of 20 ng/mL (~300 pM) | the BRET ratio decreased by ~20% from 1.6 to 1.3 for a concentration of MMP-2 of 20 ng/mL (~300 pM) | the BRET ratio was 1.64 | Within 30 minutes, the BRET ratio dropped to 0.62 | the reaction was nearly complete within 2 hours with a BRET ratio of 0.21 | NuPAGE assay detected a protein product with a smaller size, confirming the hydrolysis by MMP-2 | the BRET ratio decreased by ~20% from 1.6 to 1.3 for a concentration of MMP-2 of 20 ng/mL (~300 pM) | Gel electrophoresis analysis confirmed the cleavage of the fusion protein by MMP-2 |
